Two substances from publication doi:10.1101/2020.09.10.288878 can be followed below.

The target of the experiment is taxol-stabilized microtubules polymerised from porcine brain tubulin (porcine) (UniProt P02550). The experiment in a line: co-sedimentation.

Substance “MBP-MTB-12Q (MBP-tagged Sli15 microtubule binding domain, twelve basic SAH residues to glutamine) (domain or fragment)” yielded a decrease in the pellet fraction against MBP-MTB-WT of 20%.

“MBP-MTB-ΔSAH (MBP-tagged Sli15 microtubule binding domain with the SAH region deleted) (domain or fragment)” yielded a decrease in the pellet fraction against MBP-MTB-WT of 20%.
